The source of these data is patent US12679878B2, “CRF2 receptor agonists and their use in therapy” (SANOFI, priority 2020, dated 2026).

Assay [1] concerns the target human corticotropin-releasing factor 2α (CRF2α receptor) (human), Q13324. In words: cell-based or functional assay.
The target of assay [2] is T1, CRF1R receptor (anti-target) (UniProt P34998 24-415, limits assumed).
T1 sequence (looked up): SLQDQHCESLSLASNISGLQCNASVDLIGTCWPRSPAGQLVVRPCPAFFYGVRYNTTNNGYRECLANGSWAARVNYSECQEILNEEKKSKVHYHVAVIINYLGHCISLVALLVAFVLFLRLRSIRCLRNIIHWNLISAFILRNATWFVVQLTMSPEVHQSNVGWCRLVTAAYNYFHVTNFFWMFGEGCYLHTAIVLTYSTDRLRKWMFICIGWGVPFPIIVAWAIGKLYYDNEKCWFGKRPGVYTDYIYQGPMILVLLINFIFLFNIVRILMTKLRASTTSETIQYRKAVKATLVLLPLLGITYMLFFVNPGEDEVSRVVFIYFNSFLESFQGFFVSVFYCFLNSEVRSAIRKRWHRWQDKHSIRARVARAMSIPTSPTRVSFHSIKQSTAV
In words: cell-based or functional assay.

Starred links: 1 amine or outer side, 2 acyl side, 3 side chain; linkers in the order of their positions; H or OH if unused. Non-standard residues stand in square brackets, D forms with d. Groups on a side chain read outwards from the residue. No end group written: not given here. *: point of attachment. C16 diacid = O=C(O)CCCCCCCCCCCCCCC(=O)*; γGlu = O=C(O)[C@H](CCC(=O)[*:2])N[*:1]; Palmitoyl = CCCCCCCCCCCCCCCC(=O)*; AEEA = NCCOCCOCC(=O)O; Aib = CC(C)(N)C(=O)O

Chain of human corticotropin-releasing factor 2α (CRF2α receptor) (human), Q13324 (Q13324 20-411): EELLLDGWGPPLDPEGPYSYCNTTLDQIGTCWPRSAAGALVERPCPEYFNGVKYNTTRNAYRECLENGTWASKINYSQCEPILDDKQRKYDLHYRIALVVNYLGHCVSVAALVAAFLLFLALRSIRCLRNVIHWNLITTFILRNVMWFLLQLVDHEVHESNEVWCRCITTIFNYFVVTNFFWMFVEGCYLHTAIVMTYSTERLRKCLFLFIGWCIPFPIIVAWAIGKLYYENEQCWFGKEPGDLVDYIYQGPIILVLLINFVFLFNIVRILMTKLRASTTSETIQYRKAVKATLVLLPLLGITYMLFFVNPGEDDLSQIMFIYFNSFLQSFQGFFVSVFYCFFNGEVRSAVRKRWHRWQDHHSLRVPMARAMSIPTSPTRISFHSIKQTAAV

B1: peptide of SEQ ID NO: 216 (peptide)
peptide: IVLSLD[dV]PIGLK([AEEA-AEEA-γGlu-Palmitoyl])QILLKQERQKK[Aib]REQAETNKQILAQV-NH2
modifications: N-terminus assumed
SMILES: CCCCCCCCCCCCCCCC(=O)N[C@@H](CCC(=O)NCCOCCOCC(=O)NCCOCCOCC(=O)NCCCC[C@H](NC(=O)[C@H](CC(C)C)NC(=O)CNC(=O)[C@@H](NC(=O)[C@@H]1CCCN1C(=O)[C@H](NC(=O)[C@H](CC(=O)O)NC(=O)[C@H](CC(C)C)NC(=O)[C@H](CO)NC(=O)[C@H](CC(C)C)NC(=O)[C@@H](NC(=O)[C@@H](N)[C@@H](C)CC)C(C)C)C(C)C)[C@@H](C)CC)C(=O)N[C@@H](CCC(N)=O)C(=O)N[C@H](C(=O)N[C@@H](CC(C)C)C(=O)N[C@@H](CC(C)C)C(=O)N[C@@H](CCCCN)C(=O)N[C@@H](CCC(N)=O)C(=O)N[C@@H](CCC(=O)O)C(=O)N[C@@H](CCCNC(=N)N)C(=O)N[C@@H](CCC(N)=O)C(=O)N[C@@H](CCCCN)C(=O)N[C@@H](CCCCN)C(=O)NC(C)(C)C(=O)N[C@@H](CCCNC(=N)N)C(=O)N[C@@H](CCC(=O)O)C(=O)N[C@@H](CCC(N)=O)C(=O)N[C@@H](C)C(=O)N[C@@H](CCC(=O)O)C(=O)N[C@H](C(=O)N[C@@H](CC(N)=O)C(=O)N[C@@H](CCCCN)C(=O)N[C@@H](CCC(N)=O)C(=O)N[C@H](C(=O)N[C@@H](CC(C)C)C(=O)N[C@@H](C)C(=O)N[C@@H](CCC(N)=O)C(=O)N[C@H](C(N)=O)C(C)C)[C@@H](C)CC)[C@@H](C)O)[C@@H](C)CC)C(=O)O
In assay [1], B1 showed an EC50 [nM], 0% HSA (cAMP, HTRF) of 0.19 nM.

B2: peptide of SEQ ID NO: 191 (peptide)
peptide: IVLSLD[dV]PIKLK([γGlu-C16 diacid])QILLKQERQKKQREKAEKNKQILAQV-NH2
modifications: N-terminus assumed
SMILES: CC[C@H](C)[C@H](N)C(=O)N[C@H](C(=O)N[C@@H](CC(C)C)C(=O)N[C@@H](CO)C(=O)N[C@@H](CC(C)C)C(=O)N[C@@H](CC(=O)O)C(=O)N[C@@H](C(=O)N1CCC[C@H]1C(=O)N[C@H](C(=O)N[C@@H](CCCCN)C(=O)N[C@@H](CC(C)C)C(=O)N[C@@H](CCCCNC(=O)CC[C@H](NC(=O)CCCCCCCCCCCCCCC(=O)O)C(=O)O)C(=O)N[C@@H](CCC(N)=O)C(=O)N[C@H](C(=O)N[C@@H](CC(C)C)C(=O)N[C@@H](CC(C)C)C(=O)N[C@@H](CCCCN)C(=O)N[C@@H](CCC(N)=O)C(=O)N[C@@H](CCC(=O)O)C(=O)N[C@@H](CCCNC(=N)N)C(=O)N[C@@H](CCC(N)=O)C(=O)N[C@@H](CCCCN)C(=O)N[C@@H](CCCCN)C(=O)N[C@@H](CCC(N)=O)C(=O)N[C@@H](CCCNC(=N)N)C(=O)N[C@@H](CCC(=O)O)C(=O)N[C@@H](CCCCN)C(=O)N[C@@H](C)C(=O)N[C@@H](CCC(=O)O)C(=O)N[C@@H](CCCCN)C(=O)N[C@@H](CC(N)=O)C(=O)N[C@@H](CCCCN)C(=O)N[C@@H](CCC(N)=O)C(=O)N[C@H](C(=O)N[C@@H](CC(C)C)C(=O)N[C@@H](C)C(=O)N[C@@H](CCC(N)=O)C(=O)N[C@H](C(N)=O)C(C)C)[C@@H](C)CC)[C@@H](C)CC)[C@@H](C)CC)C(C)C)C(C)C
In the case of B2, in assay [2], the “EC50 [nM] 0% HSA (cAMP, HTRF)” value is > 100 nM and the “Emax (%) (100% = Sauvagine at 100 nM)” value was determined as 12.5%. This molecule had an EC50 [nM], 0% HSA (cAMP, HTRF) in assay [1] of 2.68 nM.

B3: peptide of SEQ ID NO: 215 (peptide)
peptide: IVLSLD[dV]PIGLK([γGlu-Palmitoyl])QILLKQERQKK[Aib]REQAETNKQILAQV-NH2
modifications: N-terminus assumed
SMILES: CCCCCCCCCCCCCCCC(=O)N[C@@H](CCC(=O)NCCCC[C@H](NC(=O)[C@H](CC(C)C)NC(=O)CNC(=O)[C@@H](NC(=O)[C@@H]1CCCN1C(=O)[C@H](NC(=O)[C@H](CC(=O)O)NC(=O)[C@H](CC(C)C)NC(=O)[C@H](CO)NC(=O)[C@H](CC(C)C)NC(=O)[C@@H](NC(=O)[C@@H](N)[C@@H](C)CC)C(C)C)C(C)C)[C@@H](C)CC)C(=O)N[C@@H](CCC(N)=O)C(=O)N[C@H](C(=O)N[C@@H](CC(C)C)C(=O)N[C@@H](CC(C)C)C(=O)N[C@@H](CCCCN)C(=O)N[C@@H](CCC(N)=O)C(=O)N[C@@H](CCC(=O)O)C(=O)N[C@@H](CCCNC(=N)N)C(=O)N[C@@H](CCC(N)=O)C(=O)N[C@@H](CCCCN)C(=O)N[C@@H](CCCCN)C(=O)NC(C)(C)C(=O)N[C@@H](CCCNC(=N)N)C(=O)N[C@@H](CCC(=O)O)C(=O)N[C@@H](CCC(N)=O)C(=O)N[C@@H](C)C(=O)N[C@@H](CCC(=O)O)C(=O)N[C@H](C(=O)N[C@@H](CC(N)=O)C(=O)N[C@@H](CCCCN)C(=O)N[C@@H](CCC(N)=O)C(=O)N[C@H](C(=O)N[C@@H](CC(C)C)C(=O)N[C@@H](C)C(=O)N[C@@H](CCC(N)=O)C(=O)N[C@H](C(N)=O)C(C)C)[C@@H](C)CC)[C@@H](C)O)[C@@H](C)CC)C(=O)O
For B3, the EC50 [nM], 0% HSA (cAMP, HTRF) in assay [1] is 0.15 nM.

B4: peptide of SEQ ID NO: 194 (peptide)
peptide: IVLSLD[dV]PIGLK([γGlu-C16 diacid])QILLKQERQKK[Aib]REQAETNKQILAQV-NH2
modifications: N-terminus assumed
SMILES: CC[C@H](C)[C@H](N)C(=O)N[C@H](C(=O)N[C@@H](CC(C)C)C(=O)N[C@@H](CO)C(=O)N[C@@H](CC(C)C)C(=O)N[C@@H](CC(=O)O)C(=O)N[C@@H](C(=O)N1CCC[C@H]1C(=O)N[C@H](C(=O)NCC(=O)N[C@@H](CC(C)C)C(=O)N[C@@H](CCCCNC(=O)CC[C@H](NC(=O)CCCCCCCCCCCCCCC(=O)O)C(=O)O)C(=O)N[C@@H](CCC(N)=O)C(=O)N[C@H](C(=O)N[C@@H](CC(C)C)C(=O)N[C@@H](CC(C)C)C(=O)N[C@@H](CCCCN)C(=O)N[C@@H](CCC(N)=O)C(=O)N[C@@H](CCC(=O)O)C(=O)N[C@@H](CCCNC(=N)N)C(=O)N[C@@H](CCC(N)=O)C(=O)N[C@@H](CCCCN)C(=O)N[C@@H](CCCCN)C(=O)NC(C)(C)C(=O)N[C@@H](CCCNC(=N)N)C(=O)N[C@@H](CCC(=O)O)C(=O)N[C@@H](CCC(N)=O)C(=O)N[C@@H](C)C(=O)N[C@@H](CCC(=O)O)C(=O)N[C@H](C(=O)N[C@@H](CC(N)=O)C(=O)N[C@@H](CCCCN)C(=O)N[C@@H](CCC(N)=O)C(=O)N[C@H](C(=O)N[C@@H](CC(C)C)C(=O)N[C@@H](C)C(=O)N[C@@H](CCC(N)=O)C(=O)N[C@H](C(N)=O)C(C)C)[C@@H](C)CC)[C@@H](C)O)[C@@H](C)CC)[C@@H](C)CC)C(C)C)C(C)C
For the molecule B4, in assay [2], the “EC50 [nM] 0% HSA (cAMP, HTRF)” value was > 100 nM and the “Emax (%) (100% = Sauvagine at 100 nM)” value was determined as 21.6%. The EC50 [nM], 0% HSA (cAMP, HTRF) in assay [1] stood at 0.11 nM.

B5: peptide of SEQ ID NO: 213 (peptide)
peptide: IVLSLD[dV]PIKLK([γGlu-Palmitoyl])QILLKQERQKKQREKAEKNKQILAQV-NH2
modifications: N-terminus assumed
SMILES: CCCCCCCCCCCCCCCC(=O)N[C@@H](CCC(=O)NCCCC[C@H](NC(=O)[C@H](CC(C)C)NC(=O)[C@H](CCCCN)NC(=O)[C@@H](NC(=O)[C@@H]1CCCN1C(=O)[C@H](NC(=O)[C@H](CC(=O)O)NC(=O)[C@H](CC(C)C)NC(=O)[C@H](CO)NC(=O)[C@H](CC(C)C)NC(=O)[C@@H](NC(=O)[C@@H](N)[C@@H](C)CC)C(C)C)C(C)C)[C@@H](C)CC)C(=O)N[C@@H](CCC(N)=O)C(=O)N[C@H](C(=O)N[C@@H](CC(C)C)C(=O)N[C@@H](CC(C)C)C(=O)N[C@@H](CCCCN)C(=O)N[C@@H](CCC(N)=O)C(=O)N[C@@H](CCC(=O)O)C(=O)N[C@@H](CCCNC(=N)N)C(=O)N[C@@H](CCC(N)=O)C(=O)N[C@@H](CCCCN)C(=O)N[C@@H](CCCCN)C(=O)N[C@@H](CCC(N)=O)C(=O)N[C@@H](CCCNC(=N)N)C(=O)N[C@@H](CCC(=O)O)C(=O)N[C@@H](CCCCN)C(=O)N[C@@H](C)C(=O)N[C@@H](CCC(=O)O)C(=O)N[C@@H](CCCCN)C(=O)N[C@@H](CC(N)=O)C(=O)N[C@@H](CCCCN)C(=O)N[C@@H](CCC(N)=O)C(=O)N[C@H](C(=O)N[C@@H](CC(C)C)C(=O)N[C@@H](C)C(=O)N[C@@H](CCC(N)=O)C(=O)N[C@H](C(N)=O)C(C)C)[C@@H](C)CC)[C@@H](C)CC)C(=O)O
The molecule B5 came in with an EC50 [nM], 0% HSA (cAMP, HTRF) in assay [1] of 4.48 nM.

B6: peptide of SEQ ID NO: 217 (peptide)
peptide: IVLSLD[dV]PIGLK([AEEA-AEEA-γGlu-γGlu-Palmitoyl])QILLKQERQKK[Aib]REQAETNKQILAQV-NH2
modifications: N-terminus assumed
SMILES: CCCCCCCCCCCCCCCC(=O)N[C@@H](CCC(=O)N[C@@H](CCC(=O)NCCOCCOCC(=O)NCCOCCOCC(=O)NCCCC[C@H](NC(=O)[C@H](CC(C)C)NC(=O)CNC(=O)[C@@H](NC(=O)[C@@H]1CCCN1C(=O)[C@H](NC(=O)[C@H](CC(=O)O)NC(=O)[C@H](CC(C)C)NC(=O)[C@H](CO)NC(=O)[C@H](CC(C)C)NC(=O)[C@@H](NC(=O)[C@@H](N)[C@@H](C)CC)C(C)C)C(C)C)[C@@H](C)CC)C(=O)N[C@@H](CCC(N)=O)C(=O)N[C@H](C(=O)N[C@@H](CC(C)C)C(=O)N[C@@H](CC(C)C)C(=O)N[C@@H](CCCCN)C(=O)N[C@@H](CCC(N)=O)C(=O)N[C@@H](CCC(=O)O)C(=O)N[C@@H](CCCNC(=N)N)C(=O)N[C@@H](CCC(N)=O)C(=O)N[C@@H](CCCCN)C(=O)N[C@@H](CCCCN)C(=O)NC(C)(C)C(=O)N[C@@H](CCCNC(=N)N)C(=O)N[C@@H](CCC(=O)O)C(=O)N[C@@H](CCC(N)=O)C(=O)N[C@@H](C)C(=O)N[C@@H](CCC(=O)O)C(=O)N[C@H](C(=O)N[C@@H](CC(N)=O)C(=O)N[C@@H](CCCCN)C(=O)N[C@@H](CCC(N)=O)C(=O)N[C@H](C(=O)N[C@@H](CC(C)C)C(=O)N[C@@H](C)C(=O)N[C@@H](CCC(N)=O)C(=O)N[C@H](C(N)=O)C(C)C)[C@@H](C)CC)[C@@H](C)O)[C@@H](C)CC)C(=O)O)C(=O)O
For B6, in assay [1], the EC50 [nM], 0% HSA (cAMP, HTRF) worked out at 0.16 nM.
